Experimental data from the supplement of paper PMC10266784.

B1: library; numbered along this chain (parent)
chain: MAAAAAAAAEQQSSNGPVKKSMREKAVERRSVNKEHNSNFKAGYIPIDEDRLHKTGLRGRKGNLAICVIILLFILAVINLIITLVIWAVIRIGPNGCDSMEFHESGLLRFKQVSDMGVIHPLYKSTVGGRRNENLVITGNNQPIVFQQGTTKLSVENNKTSITSDIGMQFFDPRTQNILFSTDYETHEFHLPSGVKSLNVQKASTERITSNATSDLNIKVDGRAIVRGNEGVFIMGKTIEFHMGGNMELKAENSIILNGSVMVSTTRLPSSSSGDQLGSGDWVRYKLCMCADGTLFKVQVTSQNMGCQISDNPCGNTH

Variants of: B1
Assay: SGCB cell-surface expression functional score (HA stain, bin4 vs bin1, normalised to synonymous) (log10 ratio); higher = more cell-surface SGCB (functional)
In short: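 Sorting and sequencing yield the functional score, defined as the log ratio of a variant's highest-bin frequency to its lowest-bin frequency, with the median taken over codons and replicate transductions. The libraries, codon-saturation sets of HA-tagged, YFP-fused human beta-sarcoglycan, went into HEK293 cells stably carrying alpha-, gamma- and delta-sarcoglycan by duplicate lentiviral transduction at MOI <0.1. Cells were stained on ice with Alexa Fluor 647 anti-HA, fixed and split into four 5% intensity bins, and synonymous variants were scaled per section to mean 0, SD 0.5.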
In the case of MAAAAAAAAEQQSSNGPVKKSMREKAVERRSVNKEHNSNFKAGYIPIDEDRLHKTGLRGRKGNLAICVIILLFILAVINLIITLVIWAVIRIGPNGCDSMEFHESGLLRFKQVSDMGVIHPLYKSTVGGRRNENLVITGNNQPIVFQQGTTKLSVENNKTSITSDIGMQRFDPRTQNILFSTDYETHEFHLPSGVKSLNVQKASTERITSNATSDLNIKVDGRAIVRGNEGVFIMGKTIEFHMGGNMELKAENSIILNGSVMVSTTRLPSSSSGDQLGSGDWVRYKLCMCADGTLFKVQVTSQNMGCQISDNPCGNTH [F170R], the “SGCB cell-surface expression functional score (log10)” value is reported as -1.14.
For MAAAAAAAAEQQSSNGPVKKSMREKAVERRSVNKEHNSNFKAGYIPIDEDRLHKTGLRGRKGNLAICVIILLFILAVINLIITLVIWAVIRIGPNGCDSMEFHESGLLRFKQVSDMGVIHPLYKSTVGGRRNENLVITGNNQPIVFQQGTTKLSVENNKTSITSDIGMQYFDPRTQNILFSTDYETHEFHLPSGVKSLNVQKASTERITSNATSDLNIKVDGRAIVRGNEGVFIMGKTIEFHMGGNMELKAENSIILNGSVMVSTTRLPSSSSGDQLGSGDWVRYKLCMCADGTLFKVQVTSQNMGCQISDNPCGNTH [F170Y], the “SGCB cell-surface expression functional score (log10)” value was -0.86.
In the case of MAAAAAAAAEQQSSNGPVKKSMREKAVERRSVNKEHNSNFKAGYIPIDEDRLHKTGLRGRKGNLAICVIILLFILAVINLIITLVIWAVIRIGPNGCDSMEFHESGLLRFKQVSDMGVIHPLYKSTVGGRRNENLVITGNNQPIVFQQGTTKLSVENNKTSITSDIGMQTFDPRTQNILFSTDYETHEFHLPSGVKSLNVQKASTERITSNATSDLNIKVDGRAIVRGNEGVFIMGKTIEFHMGGNMELKAENSIILNGSVMVSTTRLPSSSSGDQLGSGDWVRYKLCMCADGTLFKVQVTSQNMGCQISDNPCGNTH [F170T], the “SGCB cell-surface expression functional score (log10)” value is reported as -0.01.
For MAAAAAAAAEQQSSNGPVKKSMREKAVERRSVNKEHNSNFKAGYIPIDEDRLHKTGLRGRKGNLAICVIILLFILAVINLIITLVIWAVIRIGPNGCDSMEFHESGLLRFKQVSDMGVIHPLYKSTVGGRRNENLVITGNNQPIVFQQGTTKLSVENNKTSITSDIGMQLFDPRTQNILFSTDYETHEFHLPSGVKSLNVQKASTERITSNATSDLNIKVDGRAIVRGNEGVFIMGKTIEFHMGGNMELKAENSIILNGSVMVSTTRLPSSSSGDQLGSGDWVRYKLCMCADGTLFKVQVTSQNMGCQISDNPCGNTH [F170L], the “SGCB cell-surface expression functional score (log10)” value was 0.11.
With MAAAAAAAAEQQSSNGPVKKSMREKAVERRSVNKEHNSNFKAGYIPIDEDRLHKTGLRGRKGNLAICVIILLFILAVINLIITLVIWAVIRIGPNGCDSMEFHESGLLRFKQVSDMGVIHPLYKSTVGGRRNENLVITGNNQPIVFQQGTTKLSVENNKTSITSDIGMQSFDPRTQNILFSTDYETHEFHLPSGVKSLNVQKASTERITSNATSDLNIKVDGRAIVRGNEGVFIMGKTIEFHMGGNMELKAENSIILNGSVMVSTTRLPSSSSGDQLGSGDWVRYKLCMCADGTLFKVQVTSQNMGCQISDNPCGNTH [F170S] the “SGCB cell-surface expression functional score (log10)” value was -0.47.
With MAAAAAAAAEQQSSNGPVKKSMREKAVERRSVNKEHNSNFKAGYIPIDEDRLHKTGLRGRKGNLAICVIILLFILAVINLIITLVIWAVIRIGPNGCDSMEFHESGLLRFKQVSDMGVIHPLYKSTVGGRRNENLVITGNNQPIVFQQGTTKLSVENNKTSITSDIGMQKFDPRTQNILFSTDYETHEFHLPSGVKSLNVQKASTERITSNATSDLNIKVDGRAIVRGNEGVFIMGKTIEFHMGGNMELKAENSIILNGSVMVSTTRLPSSSSGDQLGSGDWVRYKLCMCADGTLFKVQVTSQNMGCQISDNPCGNTH [F170K] the “SGCB cell-surface expression functional score (log10)” value was -0.63.
With MAAAAAAAAEQQSSNGPVKKSMREKAVERRSVNKEHNSNFKAGYIPIDEDRLHKTGLRGRKGNLAICVIILLFILAVINLIITLVIWAVIRIGPNGCDSMEFHESGLLRFKQVSDMGVIHPLYKSTVGGRRNENLVITGNNQPIVFQQGTTKLSVENNKTSITSDIGMQVFDPRTQNILFSTDYETHEFHLPSGVKSLNVQKASTERITSNATSDLNIKVDGRAIVRGNEGVFIMGKTIEFHMGGNMELKAENSIILNGSVMVSTTRLPSSSSGDQLGSGDWVRYKLCMCADGTLFKVQVTSQNMGCQISDNPCGNTH [F170V] the “SGCB cell-surface expression functional score (log10)” value was 0.47.
In the case of MAAAAAAAAEQQSSNGPVKKSMREKAVERRSVNKEHNSNFKAGYIPIDEDRLHKTGLRGRKGNLAICVIILLFILAVINLIITLVIWAVIRIGPNGCDSMEFHESGLLRFKQVSDMGVIHPLYKSTVGGRRNENLVITGNNQPIVFQQGTTKLSVENNKTSITSDIGMQQFDPRTQNILFSTDYETHEFHLPSGVKSLNVQKASTERITSNATSDLNIKVDGRAIVRGNEGVFIMGKTIEFHMGGNMELKAENSIILNGSVMVSTTRLPSSSSGDQLGSGDWVRYKLCMCADGTLFKVQVTSQNMGCQISDNPCGNTH [F170Q], the “SGCB cell-surface expression functional score (log10)” value is reported as -0.12.
In the case of MAAAAAAAAEQQSSNGPVKKSMREKAVERRSVNKEHNSNFKAGYIPIDEDRLHKTGLRGRKGNLAICVIILLFILAVINLIITLVIWAVIRIGPNGCDSMEFHESGLLRFKQVSDMGVIHPLYKSTVGGRRNENLVITGNNQPIVFQQGTTKLSVENNKTSITSDIGMQPFDPRTQNILFSTDYETHEFHLPSGVKSLNVQKASTERITSNATSDLNIKVDGRAIVRGNEGVFIMGKTIEFHMGGNMELKAENSIILNGSVMVSTTRLPSSSSGDQLGSGDWVRYKLCMCADGTLFKVQVTSQNMGCQISDNPCGNTH [F170P], the “SGCB cell-surface expression functional score (log10)” value is reported as -1.16.
For MAAAAAAAAEQQSSNGPVKKSMREKAVERRSVNKEHNSNFKAGYIPIDEDRLHKTGLRGRKGNLAICVIILLFILAVINLIITLVIWAVIRIGPNGCDSMEFHESGLLRFKQVSDMGVIHPLYKSTVGGRRNENLVITGNNQPIVFQQGTTKLSVENNKTSITSDIGMQNFDPRTQNILFSTDYETHEFHLPSGVKSLNVQKASTERITSNATSDLNIKVDGRAIVRGNEGVFIMGKTIEFHMGGNMELKAENSIILNGSVMVSTTRLPSSSSGDQLGSGDWVRYKLCMCADGTLFKVQVTSQNMGCQISDNPCGNTH [F170N], the “SGCB cell-surface expression functional score (log10)” value was -1.47.
